# T1: rHuman Erythropoietin R/Fc Chimera, CF (R&D Systems Cat#963-ER) (human, UniProt P19235 25-250)
# T1 construct: Bought reagent; also called EPO R/Fc; EPO R; Fc part of the bought chimera not given
# T1 sequence (looked up): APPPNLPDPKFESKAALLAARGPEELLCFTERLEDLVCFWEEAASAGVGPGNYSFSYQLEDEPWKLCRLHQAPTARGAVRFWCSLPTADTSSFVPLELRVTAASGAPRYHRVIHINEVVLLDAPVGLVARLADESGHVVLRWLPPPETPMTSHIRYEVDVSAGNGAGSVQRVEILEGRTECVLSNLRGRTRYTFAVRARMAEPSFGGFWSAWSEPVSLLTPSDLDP
# Columns and labels:
# [1] = molecular target: T2, rHuman EGF R/Fc Chimera, CF (R&D Systems Cat#344-ER) (human, UniProt P00533 25-645); assay: MSD multispot ECL, antigen spotted on plate, Fab 11 nM; blank spot 212
# T2 construct: Bought from R&D Systems; also called epidermal growth factor receptor (EGF R); not shown: Fc of the bought chimera
# [2] = molecular target: T3, rHuman ErbB2/Fc Chimera, CF (R&D Systems Cat#1129-ER) (human, UniProt P04626 23-652); assay: as above
# T3 construct: Bought from R&D Systems; also called human epidermal growth factor 2 receptor (ErbB2); not shown: Fc of the bought chimera
# [3] = molecular target: T4, Recombinant Human DLL4 (R&D Systems Cat#1506-D4/CF) (human, UniProt Q9NR61 27-524); assay: as above
# T4 construct: Bought from R&D Systems; also called rHuman DLL4; delta-like protein 4
# [4] = molecular target: T5, rHuman EGF R/Fc Chimera, CF (R&D Systems Cat#344-ER) (human, UniProt P00533 25-645); assay: MSD Multispot ECL, antigen spotted on plate, Fab 2.0 nM; blank spot 316
# T5 construct: Bought reagent; also called epidermal growth factor receptor; Fc part of the bought chimera not given
# [5] = molecular target: T6, rHuman IGF-1 sR, (IGF-1 sR), CF (R&D Systems Cat#391-GR) (human, UniProt P08069 31-932); assay: as above
# T6 construct: Bought soluble receptor; also called insulin-like growth factor-1 soluble receptor
# [6] = molecular target: T7, rHuman CD44/Fc Chimera, CF (R&D Systems Cat#3660-CD) (human, UniProt P16070 21-220); assay: as above
# T7 construct: Bought reagent; Fc part of the bought chimera not given
# [7] = molecular target: T8, rHuman Notch-1/Fc Chimera, CF (R&D Systems Cat#3647-TK) (human, UniProt P46531 19-526); assay: as above
# T8 construct: Bought reagent; Fc part of the bought chimera not given
# [8] = molecular target: T9, rHuman ErbB2/Fc Chimera, CF (R&D Systems Cat#1129-ER) (human, UniProt P04626 23-652); assay: as above
# T9 construct: Bought reagent; also called human epidermal growth factor 2 receptor; Fc part of the bought chimera not given
# [9] = molecular target: T10, Recombinant Human DLL4 (R&D Systems Cat#1506-D4/CF) (human, UniProt Q9NR61 27-529); assay: as above
# T10 construct: Bought recombinant protein; also called rHuman DLL4; delta-like protein 4
# [10] = molecular target: T1, rHuman Erythropoietin R/Fc Chimera, CF …; assay: as above
# [11] = molecular target: T11, rHuman HGF R/c-MET/Fc Chimera, CF (R&D Systems Cat#358-MT/CF) (human, UniProt P08581 25-932); assay: as above
# T11 construct: Bought reagent; also called HGF R/Fc; hepatocyte growth factor receptor; Fc part of the bought chimera not given
# [12] = molecular target: T12, rHuman EGF R/Fc Chimera, CF (R&D Systems Cat#344-ER) (human, UniProt P00533 25-645); assay: ECL Multispot (MSD), antigen spotted; Fab 500 (µM); blank 439
# T12 construct: Bought recombinant protein; Fc part of the bought chimera not given
# [13] = molecular target: T13, rHuman ErbB2/Fc Chimera, CF (R&D Systems Cat#1129-ER) (human, UniProt P04626 23-652); assay: as above
# T13 construct: Bought recombinant protein; Fc part of the bought chimera not given
# [14] = molecular target: T14, rHuman CD44/Fc Chimera, CF (R&D Systems Cat#3660-CD) (human, UniProt P16070 21-220); assay: as above
# T14 construct: Bought recombinant protein; Fc part of the bought chimera not given
# [15] = molecular target: T15, rHuman P-Cadherin/Fc Chimera, CF (R&D Systems Cat#861-PC) (human, UniProt P22223 108-654); assay: as above
# T15 construct: Bought recombinant protein; Fc part of the bought chimera not given
# [16] = molecular target: T16, rHuman IGF-1 sR, CF (R&D Systems Cat#391-GR) (human, UniProt P08069 31-932); assay: as above
# T16 construct: Bought recombinant soluble receptor; also called insulin-like growth factor-1 soluble receptor
# [17] = molecular target: T17, Recombinant Human DLL4 (R&D Systems Cat#1506-D4/CF) (human, UniProt Q9NR61 27-529); assay: as above
# T17 construct: Bought recombinant protein; also called delta-like protein 4; rHuman DLL4
# [18] = molecular target: T18, rHuman Notch-1/Fc Chimera, CF (R&D Systems Cat#3647-TK) (human, UniProt P46531 19-526); assay: as above
# T18 construct: Bought recombinant protein; Fc part of the bought chimera not given
# [19] = molecular target: T19, rHuman HGF R/c-MET/Fc Chimera, CF (R&D Systems Cat#358-MT/CF) (human, UniProt P08581 25-932); assay: as above
# T19 construct: Bought recombinant protein; also called HGF R/Fc; Fc part of the bought chimera not given
binder,measurement,setting,value
"Fab VH1-46_IGHD3-10*01_IGHJ4*01 & B3_IGKJ1*01 (Fab, V domains shown, Tested as a Fab made in E. coli; VH was cloned into Plasmid A (CH1 constant region, His6 and Flag tags); The kappa VL was cloned into Plasmid C (kappa CL)) VH: QVQLVQSGAEVKKPGASVKVSCKASGYTFTSYYMHWVRQAPGQGLEWMGIINPSGGSTSYAQKFQGRVTMTRDTSTSTVYMELSSLRSEDTAVYYCAREYYYGSGSYYNDYFDYWGQGTLVTVSS VL: not shown",ECL signal,[1],201
same,ECL signal,[2],216
same,ECL signal,[3],254
"Fab VH1-8_IGHD2-2*01_IGHJ6*01 & L12_IGKJ1*01 (Fab, V domains shown) VH: QVQLVQSGAEVKKPGASVKVSCKASGYTFTSYDINWVRQATGQGLEWMGWMNPNSGNTGYAQKFQGRVTMTRNTSISTAYMELSSLRSEDTAVYYCARGGYCSSTSCYADYYYYYGMDVWGQGTTVTVSS VL: not shown",ECL signal,[4],424
same,ECL signal,[5],367
same,ECL signal,[6],447
same,ECL signal,[7],539
same,ECL signal,[8],382
same,ECL signal,[9],605
same,ECL signal,[10],433
same,ECL signal,[11],356
"Fab VH1-46_IGHD6-6*01_IGHJ1*01 S102A/S103P/S104F (APF) & L6_IGKJ1*01 (Fab, V domains shown, Tested as a Fab made in E. coli: VH cloned in Plasmid A (CH1 constant region, His6 and Flag tags), VL in Plasmid C (kappa constant region); also called H:APF & L:wt; APF triple mutant) VH: QVQLVQSGAEVKKPGASVKVSCKASGYTFTSYYMHWVRQAPGQGLEWMGIINPSGGSTSYAQKFQGRVTMTRDTSTSTVYMELSSLRSEDTAVYYCAREEYAPFSAEYFQHWGQGTLVTVSS VL: not shown",ECL signal,[12],1480
same,ECL signal,[13],1580
same,ECL signal,[14],874
same,ECL signal,[15],1010
same,ECL signal,[16],613
same,ECL signal,[17],28900
same,ECL signal,[18],785
same,ECL signal,[19],760

# Reference: patent US20120316071A1 (published 2012)
